# B1: FWB1904 (antibody, V domains shown)
# VH: QVQLVQSGAEVKKPGSSVKVSCKASGYIFTSYNVHWVRQAPGQGLEWIGSIYPDNGDTSYNQNFRGRATITADKSTSTAYMELSSLRSEDTAVYYCARGDFAYWGQGTLVTVSS
# VL: DIQMTQSPSSLSASVGDRVTITCKASNGISNDIAWYQQKPGKAPKLLIYSASYRYSGVPSRFSGSGSGTDFTFTISSLQPEDIATYYCQQHSTTPYTFGQGTKLEIK
# B2: FWB1907 (antibody, V domains shown)
# VH: QVQLVQSGAEVKKPGSSVKVSCKASGYIFTSYNVNWVRQAPGQGLEWIGSIYPDNGDSSYNNNYKGRATITADKSTSTAYMELSSLRSEDTAVYYCARGDFAYWGQGTLVTVSS
# VL: DIQMTQSPSSLSASVGDRVTITCRASNGISNDIAWYQQKPGKAPKLLIYSASYRYSGVPSRFSGSGSGTDFTFTISSLQPEDIATYYCQQHSTTPYTFGQGTKLEIK
# B3: FWB1908 (antibody, V domains shown)
# VH: QVQLVQSGAEVKKPGSSVKVSCKASGYIFTTYNVHWVRQAPGQGLEWIGSIYPDNGDSTYNQNFKGRATITADKSTSTAYMELSSLRSEDTAVYYCARGDFAYWGQGTLVTVSS
# VL: DIQMTQSPSSLSASVGDRVTITCKGSQGVSNDVAWYQQKPGKAPKLLIYSASYRYTGVPSRFSGSGSGTDFTFTISSLQPEDIATYYCQQHSTTPYTFGQGTKLEIK
# B4: FWB1910 (antibody, V domains shown)
# VH: QVQLVQSGAEVKKPGSSVKVSCKASGYIFTTYNVHWVRQAPGQGLEWIGSIYPDNGDTSYDEDFKGRATITADKSTSTAYMELSSLRSEDTAVYYCARGDFAYWGQGTLVTVSS
# VL: DIQMTQSPSSLSASVGDRVTITCKVSQGVSNDAVWYQQKPGKAPKLLIYSASYRYTGVPSRFSGSGSGTDFTFTISSLQPEDIATYYCQQHSTTPYTFGQGTKLEIK
# B5: FWB1911 (antibody, V domains shown)
# VH: QVQLVQSGAEVKKPGSSVKVSCKASGYIFTSYNVHWVRQAPGQGLEWIGSIYPDNGDSSYNQNYKGRATITADKSTSTAYMELSSLRSEDTAVYYCARGDFAYWGQGTLVTVSS
# VL: DIQMTQSPSSLSASVGDRVTITCKASNGVSNDIAWYQQKPGKAPKLLIYSASYRYSGVPSRFSGSGSGTDFTFTISSLQPEDIATYYCQQHSTTPYSFGQGTKLEIK
# B6: FWB1912 (antibody, V domains shown)
# VH: QVQLVQSGAEVKKPGSSVKVSCKASGYIFTSYNVHWVRQAPGQGLEWIGSIYPDNGDSSYNQNYKGRATITADKSTSTAYMELSSLRSEDTAVYYCARGDYAYWGQGTLVTVSS
# VL: DIQMTQSPSSLSASVGDRVTITCKASNGVSNDIAWYQQKPGKAPKLLIYSASYRYSGVPSRFSGSGSGTDFTFTISSLQPEDIATYYCQQHSTTPYTFGQGTKLEIK
# B7: FWB1913 (antibody, V domains shown)
# VH: QVQLVQSGAEVKKPGSSVKVSCKASGYIFTSYNVHWVRQAPGQGLEWIGSIYPDNGDSSYNQNYKGRATITADKSTSTAYMELSSLRSEDTAVYYCARGDYAYWGQGTLVTVSS
# VL: DIQMTQSPSSLSASVGDRVTITCKASNGVSNDIAWYQQKPGKAPKLLIYSASYRYSGVPSRFSGSGSGTDFTFTISSLQPEDIATYYCQQHSTTPYSFGQGTKLEIK
# B8: FWB1914 (antibody, V domains shown)
# VH: QVQLVQSGAEVKKPGSSVKVSCKASGYIFTSYNVHWVRQAPGQGLEWIGSIYPDNGDSSYNNNYKGRATITADKSTSTAYMELSSLRSEDTAVYYCARGDFAYWGQGTLVTVSS
# VL: DIQMTQSPSSLSASVGDRVTITCKASNGVSNDIAWYQQKPGKAPKLLIYSASYRYSGVPSRFSGSGSGTDFTFTISSLQPEDIATYYCQQHSTTPYTFGQGTKLEIKR
# B9: FWB1915 (antibody, V domains shown)
# VH: QVQLVQSGAEVKKPGSSVKVSCKASGYIFTSYNVHWVRQAPGQGLEWIGSIYPDNGDSSYDEDYKGRATITADKSTSTAYMELSSLRSEDTAVYYCARGDFAYWGQGTLVTVSS
# VL: DIQMTQSPSSLSASVGDRVTITCKASNGVSNDIAWYQQKPGKAPKLLIYSASYRYSGVPSRFSGSGSGTDFTFTISSLQPEDIATYYCQQHSTTPYTFGQGTKLEIK
# B10: FWB1916 (antibody, V domains shown)
# VH: QVQLVQSGAEVKKPGSSVKVSCKASGYIFTSYNVHWVRQAPGQGLEWIGSIYPDNGDSSYNQNYKGRATITADKSTSTAYMELSSLRSEDTAVYYCARGDFAYWGQGTLVTVSS
# VL: DIQMTQSPSSLSASVGDRVTITCKASNGISNDIAWYQQKPGKAPKLLIYSASYRYSGVPSRFSGSGSGTDFTFTISSLQPEDIATYYCQQHSTTPYTFGQGTKLEIK
# B11: FWB1918 (antibody, V domains shown)
# VH: QVQLVQSGAEVKKPGSSVKVSCKASGYIFTSYNVHWVRQAPGQGLEWIGSIYPDNGDSSYNQNFRGRATITADKSTSTAYMELSSLRSEDTAVYYCARGDFAYWGQGTLVTVSS
# VL: DIQMTQSPSSLSASVGDRVTITCKGSNGISNDIAWYQQKPGKAPKLLIYSASYRYSGVPSRFSGSGSGTDFTFTISSLQPEDIATYYCQQHSTTPYTFGQGTKLEIK
# B12: FWB1905 (antibody, V domains shown)
# VH: QVQLVQSGAEVKKPGSSVKVSCKASGYIFTSYNVHWVRQAPGQGLEWIGSIYPDNGDSSYNQNYKGRATITADKSTSTAYMELSSLRSEDTAVYYCARGDFAYWGQGTLVTVSS
# VL: DIQMTQSPSSLSASVGDRVTITCKASNGVSNDIAWYQQKPGKAPKLLIYSASYRYSGVPSRFSGSGSGTDFTFTISSLQPEDIATYYCQQHSTTPYTFGQGTKLEIK
# B13: FWB1919 (antibody, V domains shown)
# VH: QVQLVQSGAEVKKPGSSVKVSCKASGYIFTSYNVHWVRQAPGQGLEWIGSIYPDNGDSSYNQNYRGRATITADKSTSTAYMELSSLRSEDTAVYYCARGDFAYWGQGTLVTVSS
# VL: DIQMTQSPSSLSASVGDRVTITCRGSNGISNDIAWYQQKPGKAPKLLIYSASYRYSGVPSRFSGSGSGTDFTFTISSLQPEDIATYYCQQHSTTPYTFGQGTKLEIK
# B14: FWB1920 (antibody, V domains shown)
# VH: QVQLVQSGAEVKKPGSSVKVSCKASGYIFTSYNIHWVRQAPGQGLEWIGSIYPDNGDSSYNQNYRGRATITADKSTSTAYMELSSLRSEDTAVYYCARGDFAYWGQGTLVTVSS
# VL: DIQMTQSPSSLSASVGDRVTITCKGSNGVSNDIAWYQQKPGKAPKLLIYSASYRYSGVPSRFSGSGSGTDFTFTISSLQPEDIATYYCQQHSTTPYTFGQGTKLEIK
# B15: FWB1921 (antibody, V domains shown)
# VH: QVQLVQSGAEVKKPGSSVKVSCKASGYIFTSYNVHWVRQAPGQGLEWIGSIYPDNGDSTYNQNYRGRATITADKSTSTAYMELSSLRSEDTAVYYCARGDFAYWGQGTLVTVSS
# VL: DIQMTQSPSSLSASVGDRVTITCKGSNGVSNDIAWYQQKPGKAPKLLIYSASYRYSGVPSRFSGSGSGTDFTFTISSLQPEDIATYYCQQHSTTPYTFGQGTKLEIK
# B16: FWB1922 (antibody, V domains shown)
# VH: QVQLVQSGAEVKKPGSSVKVSCKASGYIFTSYNVHWVRQAPGQGLEWIGSIYPDNGDSTYNQNYRGRATITADKSTSTAYMELSSLRSEDTAVYYCARGDFAYWGQGTLVTVSS
# VL: DIQMTQSPSSLSASVGDRVTITCKGSNGISNDIAWYQQKPGKAPKLLIYSASYRYSGVPSRFSGSGSGTDFTFTISSLQPEDIATYYCQQHSTTPYTFGQGTKLEIK
# B17: FWB1923 (antibody, V domains shown)
# VH: QVQLVQSGAEVKKPGSSVKVSCKASGYIFTSYNVHWVRQAPGQGLEWIGSIYPDNGDSTYDEDFKGRATITADKSTSTAYMELSSLRSEDTAVYYCARGDFAYWGQGTLVTVSS
# VL: DIQMTQSPSSLSASVGDRVTITCKVSQGVSNDAVWYQQKPGKAPKLLIYSASYRYSGVPSRFSGSGSGTDFTFTISSLQPEDIATYYCQQHSTTPYTFGQGTKLEIK
# B18: FWB1924 (antibody, V domains shown)
# VH: QVQLVQSGAEVKKPGSSVKVSCKASGYIFTSYNVHWVRQAPGQGLEWIGSLYPDNGDTSYDEDYKGRATITADKSTSTAYMELSSLRSEDTAVYYCARGDFAYWGQGTLVTVSS
# VL: DIQMTQSPSSLSASVGDRVTITCKVSQGVSNDAVWYQQKPGKAPKLLIYSASYRYSGVPSRFSGSGSGTDFTFTISSLQPEDIATYYCQQHSTTPYTFGQGTKLEIK
# B19: FWB1925 (antibody, V domains shown)
# VH: QVQLVQSGAEVKKPGSSVKVSCKASGYIFTSYNVHWVRQAPGQGLEWIGSIYPDNGDSTYDEDYRGRATITADKSTSTAYMELSSLRSEDTAVYYCARGDFAYWGQGTLVTVSS
# VL: DIQMTQSPSSLSASVGDRVTITCKGSNGISNDIAWYQQKPGKAPKLLIYSASYRYSGVPSRFSGSGSGTDFTFTISSLQPEDIATYYCQQHSTTPYTFGQGTKLEIK
# B20: FWB1906 (antibody, V domains shown)
# VH: QVQLVQSGAEVKKPGSSVKVSCKASGYIFTSYNVHWVRQAPGQGLEWIGSIYPDNGDSSYNQNYRGRATITADKSTSTAYMELSSLRSEDTAVYYCARGDFAYWGQGTLVTVSS
# VL: DIQMTQSPSSLSASVGDRVTITCKASNGISNDIAWYQQKPGKAPKLLIYSASYRYSGVPSRFSGSGSGTDFTFTISSLQPEDIATYYCQQHSTTPYTFGQGTKLEIK
# Tests used:
# Murine FGFR2IIIb = target: T1, Murine FGFR2IIIb (murine, UniProt P21803-2 22-263, limits assumed); assay: ELISA, coated antigen, anti-Fab HRP
# T1 construct: Construct used in the ELISA is not described
# T1 sequence (P21803 other isoform, or with tags, fused parts or gaps limits assumed): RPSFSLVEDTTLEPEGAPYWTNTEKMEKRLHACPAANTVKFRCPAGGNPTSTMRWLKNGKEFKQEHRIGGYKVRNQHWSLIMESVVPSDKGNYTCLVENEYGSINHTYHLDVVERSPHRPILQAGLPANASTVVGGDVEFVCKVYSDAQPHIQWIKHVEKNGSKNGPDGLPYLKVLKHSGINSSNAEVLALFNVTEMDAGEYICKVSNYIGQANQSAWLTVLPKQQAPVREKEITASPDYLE
# Human FGFR2βIIIb = target: T2, Human FGFR2βIIIb (human, UniProt P21802-21 22-263, limits assumed); assay: ELISA, coated antigen, anti-Fab HRP
# T2 construct: Construct used in the ELISA (tag, Fc, limits) is not described
# T2 sequence (P21802 other isoform, or with tags, fused parts or gaps limits assumed): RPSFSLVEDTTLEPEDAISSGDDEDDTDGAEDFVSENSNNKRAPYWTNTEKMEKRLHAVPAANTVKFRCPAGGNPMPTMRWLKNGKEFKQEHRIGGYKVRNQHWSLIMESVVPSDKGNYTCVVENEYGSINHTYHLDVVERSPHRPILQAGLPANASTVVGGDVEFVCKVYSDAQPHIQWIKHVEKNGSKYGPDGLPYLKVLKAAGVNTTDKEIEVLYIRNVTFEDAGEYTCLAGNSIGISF
# [1] = target: T3, rhFGFR2IIIb-Fc (recombinant human FGFR2IIIb-Fc) (human, UniProt P21802-3 22-378, limits assumed); assay: ELISA, coated rhFGFR2IIIb-Fc, anti-Fab HRP
# T3 construct: Coated on the ELISA plate at 2 ug/mL; not shown: Fc part
# T3 sequence (P21802 other isoform, or with tags, fused parts or gaps limits assumed): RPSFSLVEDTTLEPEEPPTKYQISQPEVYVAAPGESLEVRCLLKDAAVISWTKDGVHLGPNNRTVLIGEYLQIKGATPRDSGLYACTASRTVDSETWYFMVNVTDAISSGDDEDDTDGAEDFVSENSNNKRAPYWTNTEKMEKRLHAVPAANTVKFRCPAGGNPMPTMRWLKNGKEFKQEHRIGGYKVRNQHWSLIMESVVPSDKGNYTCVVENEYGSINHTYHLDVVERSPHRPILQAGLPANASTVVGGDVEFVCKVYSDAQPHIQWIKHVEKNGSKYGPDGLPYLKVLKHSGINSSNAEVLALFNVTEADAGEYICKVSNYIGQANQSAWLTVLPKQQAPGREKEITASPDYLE
Binder,EC50 (Murine FGFR2IIIb),EC50 (Human FGFR2βIIIb),EC50 [1]
B1,308 pM,162 pM,352 pM
B2,5900 pM,262 pM,1060 pM
B3,225 pM,126 pM,281 pM
B4,296 pM,210 pM,279 pM
B5,338 pM,246 pM,697 pM
B6,293 pM,207 pM,724 pM
B7,296 pM,196 pM,903 pM
B8,250 pM,203 pM,1010 pM
B9,273 pM,185 pM,877 pM
B10,290 pM,143 pM,582 pM
B11,270 pM,135 pM,626 pM
B12,262 pM,173 pM,298 pM
B13,314 pM,149 pM,879 pM
B14,274 pM,153 pM,1210 pM
B15,260 pM,176 pM,620 pM
B16,139 pM,215 pM,656 pM
B17,,,1680 pM
B18,,,1880 pM
B19,90.8 pM,173 pM,643 pM
B20,289 pM,167 pM,324 pM

# Source: patent US20240101683A1 (published 2024)
